Article PMC5159797, “Phosphorylation of SKAP by GSK3β ensures chromosome segregation by a temporal inhibition of Kif2b activity” (Scientific Reports, 2016)

Molecular target: T1, His-GSK3β (human, UniProt P49841 1-420)
T1 construct: GSK3β; the construct is not described further; The pull-down methods speak of His-tagged fusion proteins expressed in bacterial cells, the protein methods of insect cells; also called 6×His-GSK3β; His-tagged GSK3β; source: insect cells, purified (Ni-NTA agarose)
Test: pull-down; GST fusion protein-bound sepharose beads incubated 2 h at 4 °C with purified MBP fusion proteins or His-tagged protein; PBS, 0.1% Triton X-100; anti-MBP or anti-His blot
Settings: both partners purified

T1 sequence (P49841 whole entry, the tested form may be a part): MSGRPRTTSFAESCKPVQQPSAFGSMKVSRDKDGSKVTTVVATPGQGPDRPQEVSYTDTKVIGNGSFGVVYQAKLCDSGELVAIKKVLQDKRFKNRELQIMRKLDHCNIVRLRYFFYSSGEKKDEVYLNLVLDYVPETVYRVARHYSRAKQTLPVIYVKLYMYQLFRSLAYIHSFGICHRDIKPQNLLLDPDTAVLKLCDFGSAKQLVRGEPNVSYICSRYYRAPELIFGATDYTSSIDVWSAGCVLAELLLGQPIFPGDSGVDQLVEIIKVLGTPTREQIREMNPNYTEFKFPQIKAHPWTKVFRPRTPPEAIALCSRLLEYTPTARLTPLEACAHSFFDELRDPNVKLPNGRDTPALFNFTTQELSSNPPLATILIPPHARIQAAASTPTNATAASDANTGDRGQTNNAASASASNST

- binding result: binds
B1: GST-SKAP (natural protein, UniProt Q9Y448 1-316, looked up)
chain: MAAPEAPPLDRVFRTTWLSTECDSHPLPPSYRKFLFETQAADLAGGTTVAAGNLLNESEKDCGQDRRAPGVQPCRLVTMTSVVKTVYSLQPPSALSGGQPADTQTRATSKSLLPVRSKEVDVSKQLHSGGPENDVTKITKLRRENGQMKATDTATRRNVRKGYKPLSKQKSEEELKDKNQLLEAVNKQLHQKLTETQGELKDLTQKVELLEKFRDNCLAILESKGLDPALGSETLASRQESTTDHMDSMLLLETLQEELKLFNETAKKQMEELQALKVKLEMKEERVRFLEQQTLCNNQVNDLTTALKEMEQLLEM
notes: SKAP (small kinetochore-associated protein), full length, cloned into pGEX-5X-3; also called GST-tagged SKAP full length; GST-SKAP-WT; source: E. coli Rosetta (DE3), purified on glutathione-sepharose 4B
